{"source": "paper PMC6157868", "about": "“Characterization of novel glycosyl hydrolases discovered by cell wall glycan directed monoclonal antibody screening and metagenome analysis of maize aerial root mucilage” (PLoS ONE, 2018)", "key": {"[1]": {"target": "T1, α-N-Arabinofuranosidase (FjArf51) (Flavobacterium johnsoniae, UniProt A5FF88)", "T1 construct": "gene Fjoh_3113; full-length codon-optimised synthetic gene, pET-28a(+), C-terminal 6xHis, E. coli BL21(DE3) pLysS, 75 kDa", "T1 sequence (A5FF88 1-661)": "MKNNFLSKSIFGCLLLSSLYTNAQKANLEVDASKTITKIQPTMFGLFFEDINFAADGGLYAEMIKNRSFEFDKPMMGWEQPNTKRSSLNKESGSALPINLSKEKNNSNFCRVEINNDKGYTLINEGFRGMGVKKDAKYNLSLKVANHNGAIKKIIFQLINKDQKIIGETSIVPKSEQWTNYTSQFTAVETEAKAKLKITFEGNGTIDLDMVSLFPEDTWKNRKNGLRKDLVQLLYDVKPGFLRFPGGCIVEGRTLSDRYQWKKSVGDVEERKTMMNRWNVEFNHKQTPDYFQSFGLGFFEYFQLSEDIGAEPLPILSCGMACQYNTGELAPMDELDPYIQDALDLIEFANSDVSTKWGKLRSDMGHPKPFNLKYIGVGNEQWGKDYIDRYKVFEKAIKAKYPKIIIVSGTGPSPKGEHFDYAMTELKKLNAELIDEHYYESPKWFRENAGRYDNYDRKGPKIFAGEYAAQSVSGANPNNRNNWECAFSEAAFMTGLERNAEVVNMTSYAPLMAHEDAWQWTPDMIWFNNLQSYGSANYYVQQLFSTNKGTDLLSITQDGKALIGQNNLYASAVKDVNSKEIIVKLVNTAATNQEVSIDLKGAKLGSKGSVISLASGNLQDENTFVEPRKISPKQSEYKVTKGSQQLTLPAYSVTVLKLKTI", "test": "4-nitrophenol release at […] nm, Michaelis-Menten fit", "assay_type": "biochemical", "details": "30 °C, pH 7, 50 mM phosphate"}, "purified protein [2]": {"substrate": "O=[N+]([O-])c1ccc(O[C@@H]2OC[C@@H](O[C@@H]3OC[C@@H](O[C@@H]4OC[C@@H](O)[C@H](O)[C@H]4O)[C@H](O)[C@H]3O)[C@H](O)[C@H]2O)cc1", "test": "purified protein", "assay_type": "biochemical, Flavobacterium johnsoniae", "details": "30 °C, pH 6, 50 mM phosphate"}, "purified protein [3]": {"substrate": "O=[N+]([O-])c1ccc(O[C@@H]2O[C@H](CO)[C@H](O)[C@H](O)[C@H]2O)cc1", "test": "purified protein", "assay_type": "biochemical, Agrobacterium fabrum", "details": "30 °C, pH 7, 50 mM phosphate"}, "purified protein [4]": {"substrate": "O=[N+]([O-])c1ccc(O[C@@H]2O[C@H](CO)[C@@H](O)[C@H](O)[C@@H]2O)cc1", "test": "purified protein", "assay_type": "biochemical, Agrobacterium fabrum", "details": "30 °C, pH 7, 50 mM phosphate"}, "purified protein [5]": {"substrate": "C[C@@H]1O[C@@H](Oc2ccc([N+](=O)[O-])cc2)[C@@H](O)[C@H](O)[C@@H]1O", "test": "purified protein", "assay_type": "biochemical, Spirosoma linguale", "details": "30 °C, pH 5, 50 mM citrate-phosphate"}, "purified protein [6]": {"substrate": "O=[N+]([O-])c1ccc(O[C@@H]2OC[C@@H](O[C@@H]3OC[C@@H](O[C@@H]4OC[C@@H](O)[C@H](O)[C@H]4O)[C@H](O)[C@H]3O)[C@H](O)[C@H]2O)cc1", "test": "purified protein", "assay_type": "biochemical, Spirosoma linguale", "details": "30 °C, pH 6, 50 mM phosphate"}}, "data": [{"molecule": "O=[N+]([O-])c1ccc(O[C@@H]2OC[C@H](O)[C@H](O)[C@H]2O)cc1", "note": "[4NP-α-Ara]", "values": [{"measurement": "Km", "setting": "[1]", "value": "220 ± 87", "unit": "µM"}]}, {"molecule": "Oligosaccharide reducing end Xylanase (FjXyn8) (Flavobacterium johnsoniae UW101) (protein, full-length codon-optimised synthetic gene, pET-28a(+), C-terminal 6xHis, E. coli BL21(DE3) pLysS, 50 kDa) MTVHHNITNGYLSKIHLLLLIFALIVPAFVISQNKKKIDRELKKPQYRNLFKEAGYSQDDIDKKLTKAYYDVFEGPDKVYFEEGDSLGYVSDVKNKDARTEGMSYGMMVAVQFNKKDVFDRLWRWSVKYMQHQDGPREGYFAWSVNPQTKKQNSAGSASDGELYYITSLLFASNKWGNDTGINYYKEARRILDAMWKKDGTGNIYNIINTEHKQISFVPEGGGYNWTDPSYHVPAFYEIWALYAKDGHEQFYKECAEVSRKFLHKACHPVTGLTSDYTEFNGEPHPTPWLPPGFRYDSWRVPMNIAMDYTWYGKDKEWQEDYAKRFQNFLRSKGLETYEDQFNLDGSTPEFILQAGPVKKLRHSIGLVGTAATASLVNKDKASIDFVHAVWNAKLEPYEDGYFDPYYDGLMYLFSLMHLSGNYQIIVPKG", "values": [{"measurement": "Km", "setting": "purified protein [2]", "value": "790 ± 222", "unit": "µM"}, {"measurement": "kcat", "setting": "purified protein [2]", "value": 5.15, "unit": "s⁻¹"}, {"measurement": "kcat/Km", "setting": "purified protein [2]", "value": 6530, "unit": "M⁻¹ s⁻¹"}]}, {"molecule": "β-Mannosidase (AfMan2) (Agrobacterium fabrum str. C58) (protein, full-length codon-optimised synthetic gene, pET-28a(+), C-terminal 6xHis, E. coli BL21(DE3) pLysS, 93 kDa) MISSSTPETVIDLAGLWHLASVEGDHATEISIPGDIHSALKNAAIIPDPYHGANEKAVQWVAQQDWIIERTFILDDAEASWYLDIDYLDTVAIVFVNDVPVLSADNCFRRYRPDISRAVRPGENTIRIHFHSNITAGAERQARQPFYIPYHPGNSPIANGNMLRKPQCHFGWDWNIAIAPLGLYGKILLKRLDTARIEHVVSSQHHVEGGVELHVAVTLFAEGPASLPVYLSLGDERLRLECGVGAGETVVRHVFFVENPDLWWPAGSGEQTLYKLTVELPDETVTRQIGFRTIELLTDKDEAGSRFAFRINGREIFCRGANWIPADALYSLTSREKTEDLLCSAVEANMNMIRVWGGGFYEEDWFYDLCDRLGLLVWQDFMFACNLYPCSEDFLDNVEHEVDYQVKRLSSHPSIALWCGDNELVGALTWFDESRNNRDRYLVAYDRLNRTIEKALKKATPEALWWPSSPASGYLDYGDAWHADGSGDMHYWSVWHENKSFDNYHQVKPRFCSEFGFQSYTSMPVIRTYAEDKDMNIASPVIELHQKNVGGNERIAGTMFRYFRFPRDFENFVYLSQVQQALAIRTAVDYWRSLKPHCMGTLYWQLNDTWPVASWSSLDYGGGWKALHYAARRFFQPVAVSAIPSADGRRVTFSMVNDTAEDVEIDMNIVALAMDGNRVPLKSANGTCTSDKAATLTDIDMDSLPDGAILAWNFIASNGMTGEGHHVRDTYKALELQPAGLEFSVGPLKNGQFEIDVTAAGLALFIMLEADQPGRYSDNLFDLAAGETRRIIFTPKGAGPQPHFRIFDLHTCQSSPNPGIETMRRKA", "values": [{"measurement": "Km", "setting": "purified protein [3]", "value": "250 ± 62", "unit": "µM"}, {"measurement": "kcat", "setting": "purified protein [3]", "value": 269, "unit": "s⁻¹"}, {"measurement": "kcat/Km", "setting": "purified protein [3]", "value": "1.08e+06", "unit": "M⁻¹ s⁻¹"}, {"measurement": "Km", "setting": "purified protein [4]", "value": "680 ± 219", "unit": "µM"}, {"measurement": "kcat", "setting": "purified protein [4]", "value": 1350, "unit": "s⁻¹"}, {"measurement": "kcat/Km", "setting": "purified protein [4]", "value": "1.98e+06", "unit": "M⁻¹ s⁻¹"}]}, {"molecule": "α-L-Fucosidase (SlFuc29) (Spirosoma linguale DSM 74) (protein, full-length codon-optimised synthetic gene, pET-28a(+), C-terminal 6xHis, E. coli BL21(DE3) pLysS, 55 kDa) MKKQITSILFSLLVSTSALAQQHSEQNHDKYVWPKDELVKKKLANWQDIKFGLLMHWGTYSEWGVVESWSLCPEDEGWCERRGPYAANWFEYKKAYENLQTTFNPTKFNPERWANAAKGAGMKYVVFTTKHHDGFCMFDTKLTDYKITDKKTPFSSNPRSNVTKEILGAFRQQGFMVGTYFSKPDWHTEDYWWTYFPPKDRNVSYDPKKYPDHWKKFSDFTYNQIEELMTGYGNVDILWLDGGWVRPASTIDSTVSWQRTIPYSQDINMARIAGMARQHQPGLLVVDRTVSGEFENYVTPEQSIPDHYMPIPWESCITMGDSWSYIPKENFKPARKLVQTLVDIVAKNGNLLLNIAPGPDGEWHEEAYQRLQEIGKWITVNGESIYGTKPLAPYRQGQWAFTSNNKAVYASYLPSESEQQLPASISLPALTVAPNAKVTVLGASQALKLTKTKDGFSVVVPEKVRQQLAGQPVWVFKIG", "values": [{"measurement": "Km", "setting": "purified protein [5]", "value": "580 ± 20", "unit": "µM"}, {"measurement": "kcat", "setting": "purified protein [5]", "value": 53.1, "unit": "s⁻¹"}, {"measurement": "kcat/Km", "setting": "purified protein [5]", "value": 91800, "unit": "M⁻¹ s⁻¹"}]}, {"molecule": "Xylan β-1,4 Xylosidase (SlXyn39) (Spirosoma linguale DSM 74) (protein, full-length codon-optimised synthetic gene, pET-28a(+), C-terminal 6xHis, E. coli BL21(DE3) pLysS, 65 kDa) MPLLRRFCLQTGHLSALFFGLVVSVAFGSIDSHAQTSPDKPVAIQVDLTKDKGPLKPIWAWFGYDEPNYTYMKDGRKLLTEISQLSKVPVNVRVHSLLVTGDGTAALKWGSTNAYTEDKAGNPIYNWTIIDKIFDTFIERGMKPIAQIGFMPEALSTKPQPYRHYWKPGDNYNDIYTGWAYPPKDYKKWSELVYQWVKHSVQRYGQKEVESWYWELWNEPNISYWKGTTEEYIKLYDYTADAVKRALPTAKIGGPEVTGPNWDVSEKFFRAFMDHVVKGTNAVTGKVGTPIDFITFHAKGAPKVVNGVVQMNMGTQLRDIDKGFAIVASYPSLKNLPIIIGESDPEGCAACSEDLHPQNAYRNGTMYSSYTAASFARKYDLAEARGVNLAGAVTWGFEFEDQAWFRGFRDLATNGVDKPVLNVFRMFGMMQGNRVAVNTDLAYNAKKIRDESVRGEPDINALATKDAQSASVMVWNYHDDNVQGPGSPVSLKINGLTAKKVWVQHYRIDQQFSNSYEVWKKMGSPKAPTAEQVAELEKAGQLQLLASPTWVTVEKGVLTMPFQLPRQGVSLVKVSW", "values": [{"measurement": "Km", "setting": "purified protein [6]", "value": "80 ± 9", "unit": "µM"}, {"measurement": "kcat", "setting": "purified protein [6]", "value": 2.17, "unit": "s⁻¹"}, {"measurement": "kcat/Km", "setting": "purified protein [6]", "value": 26900, "unit": "M⁻¹ s⁻¹"}]}]}
